Results: IntAct's records for PubMed 16294310

B1: Acyl carrier protein (Escherichia coli (strain K12)), P0A6A8 (parent)
chain: MSTIEERVKKIIGEQLGVKQEEVTNNASFVEDLGADSLDTVELVMALEEEFDTEIPDEEAEKITTVQAAIDYINGHQA
partner: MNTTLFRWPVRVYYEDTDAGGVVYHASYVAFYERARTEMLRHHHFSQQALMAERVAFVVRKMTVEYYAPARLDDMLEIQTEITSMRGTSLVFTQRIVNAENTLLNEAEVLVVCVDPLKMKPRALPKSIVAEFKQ

Variants of: B1
Conditions: with ybgc_ecoli ybgC

Q: MSTIEERVKKIIGEQLGVKQEEVTNNASFVEDLGADCLDTVELVMALEEEFDTEIPDEEAEKITTVQAAIDYINGHQA [S37C] was tested. Which “effect of a mutation on the interaction” value did it give?
A: disrupting interaction
